# Measurements published in the DeepSol protein solubility set.
# Experiment: soluble on expression in E. coli; label from the status in PepcDB or PDB records
row,Sequence,soluble on expression in E. coli
1,MSQSASQDLSDFLGDDRFATVMADPPWRFTNRTGKVAPEHKRLARYPTMTLEDICALPVADYLQDRAHCYLWVPNALLPEGLQVLSAWGFEYKSNIVWHKVRKDGGSDGRGVGFYFRNVTELLLFGTKGKNARTLAPGRRQVNMMQTRKREHSRKPDEQYELIESCSWGPYLEMFGRGVRDGWTVWGNQADADYKPSWKTYSYNSGVAAELEHHHHHH,soluble
2,MSRDLLGLEGKIVMVTGAGRGFGRAIAHGYGRNGATVIAVDPDVELATGVASEVEALGATAIPIRGDMSVVLDVTSTFEKVEELFGLLDGIVHVTTAESKTPFVELLEGEWYDLMSQDVKSSLYVLQQGLRHLAGGGFVTIVLPPAARIEPHTVSVRKAVEGLIEGATRTFPGVRVNGVVPSRDPVGDPYDLPLVRAALGLGSMVSEGIRGVVLEVQLPEPPLEFEPYAALRELP,soluble
3,MSRPPSRPRMMCARVLLLLSVTGLVLACETGPSSGDYEQAVMQDRVQRDMQMREKESVLPPGRREAFRGLNFYEVDPAYRYTVPLRRFETPDTVMIPESTGDLRPQQRIGEVTVPLPEGPEELVVFRGEGDTPRGRLWIPFADSTNRHATYKGGRYVDLTSTDSDSVVVDFNRAYNPTCAYNPDFACPLPPPENRIAVPVAAGEKRPTFGGLEHHHHHH,not soluble
4,MSRRGGAPSRPPRPPIRYVATAPKPSRVVTRSRPEGVRWLRADGTPNWSQRVRRLPGDAKELASRPAVSVHKSAPILSAAEKIASHRVRGLVVIKGSGDAVLEGILLATDLVNYLGGGDYFQIVENRHRDSIYSALRKEVVATIMNRHPIAVSVSDDLDTILRIMVGEGIGFLPVLYDDGTLHGVITERNILGRIADIP,not soluble
5,MSRRSRSRSRSPKRDREERKRREDRDRDRERKRDRKDRERKRRHRSSSSEGSQAEPHQLGSIFREERRRRERNESPKLPPPPPPPPSDPPVDTSIPFDVSTLNEPTKKWLEEKIVEQVSARVHQLEAMMAEKATSARNEMEKMLRAQIEAEMAVELAECKKRDEESRKKCKQLEAELERKVLEAEESRKKFEEDRLAMLEQKSQLERDRAELARQKSDMKKNEQQAILNKSGNSRAPIKFKFGK,not soluble
6,MSRSTFSILPYINRQKVKADGTANILCRITVDGKSAAISTGISCTPQEWNAKKGEVRNARDNGRLASFLDEIKDKYNALLVANGIITVEMLKAVLKDKDTTGRFLLSFGDTIVEWYRTAKARQTFLHKRTWQKNLRDFVHSLDKDDIAFEDIDENFGEEYKLFLKRDQGRIDSYVNHCLLWLNMLMYKAVDRSIIRFNPIAKIGYEKKAAPKMTHISKADFIKMLSTPMADERTELARRCFIFASLTSLSYIDVKKLYPRHISENSEGRKFIRKEREKTGVEFFVPLHPIAEKILSLYNTTDDSKPVFPLGEKKDIYLDVHTLGMVLGISNKLGFHASRHTFGVLMLNEDIPIGSIAKMMGHADITSTQVYAQVTEQKISNDMDKLIAKREMNRLSNEKTIGK,not soluble
7,MSRTVMCRKYHEELPGLDRPPYPGAKGEDIYNNVSRKAWDEWQKHQTMLINERRLNMMNAEDRKFLQQEMDKFLSGEDYAKADGYVPPSA,soluble
8,MSRVCQVTGKRVQTGNNVSHANNKTRRRFLPNLHKRRFWVASENRWVKLRVSTCAVRTIDKNGIDAVLAELRASGEKVLEHHHHHH,not soluble
9,MSSAATPPPMEHTSSEDSTTAPLQTPSSSSCLDVTVAVGTSVSYLKASPLVSSPTSLVVDITESSSTLLYDKIKALPCEPVVTEVDTSTLRKETLNQIDGLLGPSPEALELRQLLNSPHLASCVQALDVVVCEIRDPKNEASGSGDKEGNCVSSDPAPAYLNGGVLPLGAQRAGTSFEHFNQSAVHTSYDEEEEELYDCMSRLRLVQFQKDTQEPMGITLKVNEDGRCFVARIMHGGMIHRQATLHVGDEIREINGMSVANRSVESLQEMLRDARGQVTFKIIPSYRSAPPACEIFVRAQFDYEPSQDDLIPCPQAGIPFKTGDILQVISKDDHNWWQARFVSSFPSIGNSSNAQRSNQQQVAGLIPSPELQEWRTACLAMERSKNTCNTHCMWFNKKKKYYTTKYLQKHSALFDQLDLVTYEEVMRLSQYRRKTLVLLGAHGVGRRHIKNTLIHRHPNRFAYPIPHTTRPPRKDEVDGKHYYFVTNEQMMADIQNNEYLEYGTHEESMYGTKLETIRNIHKSGKIAILDVEPQALKVLRTAEYSPFVVFIAAPNLQGMQDPDGSLEKLLNESDVLRQAFGHLFDFIITNSDIDDTIAQLERLVEKLPAYPQWLPVTWVY,not soluble
10,MSSAPLPPKPIERGYASAGLLARILVSKYMEHIPLYRQSEIYARQGVELSRNTMVRWVSEMADKLRPLYIALNDYVLEAGKVHADDTPVKVLAPGNGKTKTGRLWVYVRDDRNAGSSLPAAVWFAYSADRKGEHPQLHLAKYQGVLQADAYAGYNVLYETGRVKEAGCLAHARRKIHDEDVRRPTEMTQEALRRIAELYDIEAEIRGSPAEERLAVRKARSVQLMQSLYDWIQLQRKTLSKHAEMAKAFDYILNHWNALNEFCRDGRVEIDNNIGENALRSVAVGRKNYLFFGSDKGGESAAIIYSLLVTCKQNEVEPEDWLREVIEKLNDWPSNQVHELLPWNFSSVK,not soluble
11,MSSDKNGDILRPLSDSEVDELLDLYKVKFGIRNFHYLLLYNQRKWDRQLSEAQIPRNDLNHISLRKQFYTHRRGNFRTWGTYVSLHRDIVQSVSFFSWQPDGAAELWECLEQTQLIEWTQGALLTNVDLGFCNRVKELAVSRGVTAIQPRQCFGMVLSHEDAFCAKVPDLPSEFEIRRLRAEDAAMVHDSWPNKGEGSLTYLQALVRFNKSLGICRSDTGELIAWIFQNDFSGLGMLQVLPKAERRGLGGLLAAAMSREIARGEEITLTAWIVATNWRSEALLKRIGYQKDLVNEWIKLVPNSSLEHHHHHH,soluble
12,MSSEYIIGRNPVIEALRSGRDINKIWIAEGAAKGQVQIVLALAKENKIILQHAPKKKLDQLVEGNHQGVIAQVAAYQYAELEDLFKVAEKRNEDPFFLILDEIEDPHNLGSIMRTADATGAHGIIIPKRRAVGLTASVAKASTGAIEYIPVARVTNLSRTIDELKERGLWIAGTDAKGKTDYRNLDGKMPIGLVIGSEGKGMSRIIGEKCDFLITLPMVGKVTSLNASVAASLLMYEVYRKRNEIGK,soluble
13,MSSGDMTSEYKDKQGGGAGQPLTKSENNDGKKTLTNGMSRVHRVLTEDEIASGRSTRWTELEIHGRVKNLSPSLWQLTHLSALFLNNNGLTRLPPEIAQLTNLTMLDISNNKLRSLPTELGDMISLCHLYLNNNQLRVLPYELGKLFRIQTLGLQGNPLSPEISKIYHETNGAQKILQFLLDHLTINTHPPPERNWVMIRHADPERPIATFTVLCYNVLCDKYATVNQYSYCPSWALNWEYRKGLIIKEIRTYEADVITLQEVETEQFRTLFQPELKQLGYAGIFEAKSRAKTMGEEERKYVDGCAIFWKVDKFDMDKQYLFEFSSVAMKKASTSENMLNRVMPRDNIGLCAVLKIKESVYANKFLGRMQIPMNDNVVGNPLVVATAHIHWDPEFCDVKLVQSMMLTHEVSRVLEEVSKKYQITQQQVPVLICGDFNSLPDSGVFEYLSKGQITRRHMDLKSFRDDSCLEKFTNSTDKNVISHPLRLDSACDINSIPFTNYTLDFKGMIDYIFATPQSLARLGILGPFDPQWVQSNKILGFPHPHVASDHIPIMAQYAIIPTTHQRQQPLQQAGPAAGVIGGGFPSTPSGAQPFLRC,not soluble
14,MSSGRNISCRMATRSCFFRLLQGVEMLRIADKTFDSHLFTGTGKFASSQLMVEAIRASGSQLVTLAMKRVDLRQHNDAILEPLIAAGVTLLPNTSGAKTAEEAIFAAHLAREALGTNWLKLEIHPDARWLLPDPIETLKAAETLVQQGFVVLPYCGADPVLCKRLEEVGCAAVMPLGAPIGSNQGLETRAMLEIIIQQATVPVVVDAGIGVPSHAAQALEMGADAVLVNTAIAVADDPVNMAKAFRLAVEAGLLARQSGPGSRSYFAHATSPLTGFLEASA,soluble
15,MSSGVPVLHWNFGIGPITCHAWNKDRTQIAVSASSNDIHIFEWRNGDWQSIHTLSEHDLPVTGLDWGTKTNRIVSCSQDKNAFVWTFDKNVWKPELVLVRFNRAATYVKWSPLENKFAVGSGAKLVSVCYYEKENDWWVSKQIKKPIRSTVTCLDWHSNNVLLAVGSCDFKCRVFSAYVKEVDEKPSPNPWGQKMPFGQLMSEYSVGGWVHRVAFSPSGCRLAFVSHDSSVSFVDSTVDSQKVQNLLTIHLPFTTVEWITENSVVTAGHDCSPVLFVVSQDVLKEVCKLDVPSAAKSSTVNSALQLFKNIDRNNAAEKINVALKTLHQNRITQILPHSGTVGNVVKFTTCGTDGIVALWDLKNHPSLV,not soluble
16,MSSKSTKRAKIEDPKDNVFMVEKVLDKRTGKAGRDEFLIQWQGFPESDSSWEPRENLQCVEMLDEFEREFSKREKPIRKRHSQKPEPSEDQADPEEDKDEKKETNQNDKFSLEGKQLKCIVGLTKGPGELHFLCKFSDDTARLLPAKEVNSRYPSQVIRYYESKLTIQDPKADEL,not soluble
17,MSSNFIVESCSVDSEEGVKLHTRIFKPRNEGEEVSDDENLVIVLVHPFSLLGGCQALLKGIASELASKGFKSVTFDTRGAGKSTGRATLTGFAEVKDVVAVCRWLCQNVDAHRILLVGSSAGAPIAGSAVEQVEQVVGYVSLGYPFGLMASILFGRHHKAILSSPKPKLFVMGTQDGFTSVSQLKKKLKSAVGRTETHLIEGVSHFQMEGPEYDSQVTDIICKFISSL,not soluble
18,MSSNLIRFVGNHDIASEGKFLFEILSQLRNFGVGRLVTKNEWTRKWPNNPSYMKILRAEPGMDRWLFEGKVYAEWVFRGKNLGVYEFSKDLNRSDWQLVHKHQEKSYTSSTTPMQDLVLPDSFPLPPLQVHLSQKSARKNGLDEKTVSRRAPLTLSVDPEFQHLKPFIKQEAPSTKSVSIYEEVDKNALLDLYGNELPVKVEAWNAGPAMFQPRFNATTMRVEEQPPK,not soluble
19,MSSPTSLEEDGDIKLKTRFQGQVVVLYARPPLILDDFFALLKDACKQHKKQDITVKWIDEDGDPISIDSQMELDEAVRCLNSSQEAELNIHVFVGKPELPGLPCQGEDKTVYRRGARRWKKIYLYNGHRFQAKRLNRRIQCFICHDYIWGIGRQGFRCVDCRLCVHKKCHRHVRTHCGQALQGPNIIPMAPASGSLKGARSNTSSSTTRSGGGIDNGAFHEHEIESPGSTSHDASRAMNGNGSSKWAVSLNDFRLLTVIGRGSYAKVVQAEHVSTRQIYAIKIIKKEMFNEDEDIDWVQTEKSVFEAASNYPFLVGLHSCFQTESRLFFVIEFVPGGDLMFHMQQQRKLPEEHARFYSGEIILALHFLHSRGIIYRDLKLDNVLIDAEGHIKLTDYGMCKENIKDGDLTSTFCGTPNYIAPEILRGDEYGFSVDWWALGVLMFEMMAGRSPFDIVGMQNSEENTEDYLFQIILERQIRIPRSLSVRASGILKGFLNKDPTERLGCKLDINEGLRDMKEHQFFRGFIDWEALEQKAVAPPYHPAVESDRDLTHFDHQFTDELPQLSPDNPDVIARIDQSEFDGFEYVNPLQMSREDSV,not soluble
20,MSSQELVTLNVGGKIFTTRFSTIKQFPASRLARMLDGRDQEFKMVGGQIFVDRDGDLFSFILDFLRTHQLLLPTEFSDYLRLQREALFYELRSLVDLLNPYLLQPRPALVEVHFLSRNTQAFFRVFGSCSKTIEMLTGRITVFTEQPSAPTWNGNFFPPQMTLLPLPPQRPSYHDLVFQCGSDSTTDNQTGVRYVSIKPDNRKLANGTNVLGLLIDTLLKEGFHLVSTRTVSSEDKTECYSFERIKSPEVLITNETPKPETIIIPEQSQIKK,soluble
21,MSSQNANLMREVRLFENHSEREQMENLSELFAVLNALEHLEKMFSRDHVSADEYKSECFKLIDQYKVTMRLVHGATSIEDFAKKYRLHCPAAIERIREGRPITVKDDQGNVLKHIASIVEQFITFLDALRLNTRAVDDLYPGLDDLYNAINTTSRVPIDAIVTTKVKKWHDRLSSMAASDEISDEDARQMIFDVESAYQAFNKALNELKH,soluble
